Publication PMC9482650, “Quantitative fragmentomics allow affinity mapping of interactomes” (Nature Communications, 2022)

B1: TNRC6B, Q9UPQ9 (peptide)
chain: DLLGGGSDSI
B2: TMEM178A, Q8NBL3 (peptide)
chain: QLKSGRDSTV
B3: CLDN20, P56880 (peptide)
chain: NSTHNLKDYV
B4: SORCS3, Q9UPU3 (peptide)
chain: TKEIPNCTSV

Columns and labels:
Assay in all cases: holdup assay
Parameters in all cases: key: below the threshold = too weak to quantify, mostly under pKd 3.1 to 4
Settings in all cases: plain residues with an end cap or a label only (N-terminal biotin on a linker: ado-ado)
AHNAK1, Q09666 = biological target: AHNAK1, Q09666
HTRA3, P83110 = biological target: T1, HTRA3, P83110
T1 sequence (P83110 354-453, limits assumed, looked up): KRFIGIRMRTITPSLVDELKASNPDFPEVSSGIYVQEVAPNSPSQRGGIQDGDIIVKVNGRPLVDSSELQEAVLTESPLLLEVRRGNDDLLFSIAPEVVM

IL16_1, Q14005 = biological target: IL16_1, Q14005
LNX2_3, Q8N448 = biological target: T2, LNX2_3, Q8N448
T2 sequence (Q8N448 463-564, limits assumed, looked up): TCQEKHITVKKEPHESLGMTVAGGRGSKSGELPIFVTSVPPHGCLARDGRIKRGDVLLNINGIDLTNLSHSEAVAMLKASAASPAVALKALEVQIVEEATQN

HTRA4, P83105 = biological target: T3, HTRA4, P83105
T3 sequence (P83105 378-476, limits assumed, looked up): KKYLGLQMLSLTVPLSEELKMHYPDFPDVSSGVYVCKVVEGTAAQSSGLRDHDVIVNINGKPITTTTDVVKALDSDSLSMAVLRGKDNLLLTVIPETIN

NHERF4_1, Q86UT5-2 = biological target: NHERF4_1, Q86UT5-2
NOS1, P29475 = biological target: NOS1, P29475
Inadl_4, Q8NI35 = biological target: Inadl_4, Q8NI35
MAST1, Q9Y2H9 = biological target: MAST1, Q9Y2H9
SNTG1, Q9NSN8 = biological target: T4, SNTG1, Q9NSN8
T4 sequence (Q9NSN8 52-150, limits assumed, looked up): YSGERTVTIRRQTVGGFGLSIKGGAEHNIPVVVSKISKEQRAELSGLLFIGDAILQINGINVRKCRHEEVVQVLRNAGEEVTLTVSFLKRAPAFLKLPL

TJP1_2, Q07157 = biological target: TJP1_2, Q07157
MAGI2_5, Q86UL8 = biological target: MAGI2_5, Q86UL8
ARHGEF12, Q9NZN5-2 = biological target: ARHGEF12, Q9NZN5-2
SNTG2, Q9NY99 = biological target: T5, SNTG2, Q9NY99
T5 sequence (Q9NY99 68-166, limits assumed, looked up): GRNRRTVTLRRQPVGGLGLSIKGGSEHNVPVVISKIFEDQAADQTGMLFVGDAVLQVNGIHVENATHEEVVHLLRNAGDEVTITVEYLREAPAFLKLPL

NHERF2_2, Q15599 = biological target: NHERF2_2, Q15599
SNTA1, Q13424 = biological target: T6, SNTA1, Q13424
T6 sequence (Q13424 82-180, limits assumed, looked up): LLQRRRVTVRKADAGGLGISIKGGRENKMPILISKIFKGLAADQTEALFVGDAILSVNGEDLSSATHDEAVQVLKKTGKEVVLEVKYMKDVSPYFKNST

MPP7, Q5T2T1 = biological target: T7, MPP7, Q5T2T1
T7 sequence (Q5T2T1 134-230, limits assumed, looked up): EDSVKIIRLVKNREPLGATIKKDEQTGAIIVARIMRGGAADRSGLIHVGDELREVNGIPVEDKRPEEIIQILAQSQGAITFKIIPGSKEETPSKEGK

CARD11, Q9BXL7 = biological target: T8, CARD11, Q9BXL7
T8 sequence (Q9BXL7 662-765, limits assumed, looked up): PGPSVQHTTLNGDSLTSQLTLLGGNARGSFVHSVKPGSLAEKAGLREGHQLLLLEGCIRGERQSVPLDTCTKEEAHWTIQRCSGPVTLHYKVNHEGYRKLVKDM

SYNJ2BP, P57105 = biological target: T9, SYNJ2BP, P57105
T9 sequence (P57105 8-110, limits assumed, looked up): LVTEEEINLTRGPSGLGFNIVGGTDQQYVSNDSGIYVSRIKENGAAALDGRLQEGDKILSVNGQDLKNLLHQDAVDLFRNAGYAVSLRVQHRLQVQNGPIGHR

SCRIB_2, Q14160 = biological target: SCRIB_2, Q14160
Inadl_9, Q8NI35 = biological target: Inadl_9, Q8NI35
PARD3_3, Q8TEW0 = biological target: PARD3_3, Q8TEW0
PCLO, Q9Y6V0 = biological target: T10, PCLO, Q9Y6V0
T10 sequence (Q9Y6V0 4491-4600, limits assumed, looked up): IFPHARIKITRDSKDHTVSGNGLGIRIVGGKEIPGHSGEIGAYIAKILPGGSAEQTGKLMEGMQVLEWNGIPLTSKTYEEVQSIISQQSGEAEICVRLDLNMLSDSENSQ

DLG2_3, Q15700 = biological target: DLG2_3, Q15700
PARD3B_1, Q8TEW8 = biological target: T11, PARD3B_1, Q8TEW8
T11 sequence (Q8TEW8 196-299, limits assumed, looked up): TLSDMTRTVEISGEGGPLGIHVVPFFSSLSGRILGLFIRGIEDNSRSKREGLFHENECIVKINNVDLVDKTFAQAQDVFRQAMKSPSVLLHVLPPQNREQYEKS

Inadl_3, Q8NI35 = biological target: Inadl_3, Q8NI35
Chain of Inadl_3, Q8NI35 (Q8NI35 359-469): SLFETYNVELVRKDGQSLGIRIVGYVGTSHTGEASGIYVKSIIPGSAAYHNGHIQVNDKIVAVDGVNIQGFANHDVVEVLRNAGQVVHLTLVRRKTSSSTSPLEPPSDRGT

Chain of Inadl_9, Q8NI35 (Q8NI35 1530-1615): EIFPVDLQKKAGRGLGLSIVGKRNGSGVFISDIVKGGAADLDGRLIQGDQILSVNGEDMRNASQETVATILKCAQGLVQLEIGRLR
Chain of SCRIB_2, Q14160 (Q14160 857-960): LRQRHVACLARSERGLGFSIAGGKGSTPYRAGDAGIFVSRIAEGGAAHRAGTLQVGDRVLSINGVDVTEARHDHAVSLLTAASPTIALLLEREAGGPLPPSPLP
Chain of TJP1_2, Q07157 (Q07157 181-274): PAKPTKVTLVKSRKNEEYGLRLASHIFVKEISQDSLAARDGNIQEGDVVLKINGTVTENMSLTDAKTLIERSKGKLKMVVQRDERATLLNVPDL
Chain of NHERF4_1, Q86UT5-2 (Q86UT5 other isoform, or with tags, fused parts or gaps): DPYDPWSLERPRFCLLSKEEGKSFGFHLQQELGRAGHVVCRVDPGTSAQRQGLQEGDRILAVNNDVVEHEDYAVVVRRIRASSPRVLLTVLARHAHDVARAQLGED
Chain of AHNAK1, Q09666 (Q09666 4-100): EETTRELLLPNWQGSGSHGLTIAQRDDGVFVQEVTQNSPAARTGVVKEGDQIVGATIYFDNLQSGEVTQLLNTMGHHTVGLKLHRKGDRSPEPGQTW
Chain of MAST1, Q9Y2H9 (Q9Y2H9 962-1065): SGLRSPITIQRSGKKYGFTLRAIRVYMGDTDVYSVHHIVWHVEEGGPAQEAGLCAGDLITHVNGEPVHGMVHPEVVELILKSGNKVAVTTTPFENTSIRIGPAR
Chain of ARHGEF12, Q9NZN5-2 (Q9NZN5 other isoform, or with tags, fused parts or gaps): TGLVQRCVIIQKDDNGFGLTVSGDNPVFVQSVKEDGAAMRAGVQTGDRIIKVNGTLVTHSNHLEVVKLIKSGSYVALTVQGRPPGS
Chain of NHERF2_2, Q15599 (Q15599 142-238): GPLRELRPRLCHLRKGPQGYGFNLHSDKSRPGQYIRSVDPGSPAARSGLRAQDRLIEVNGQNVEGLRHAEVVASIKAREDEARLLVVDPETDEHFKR
Chain of IL16_1, Q14005 (Q14005 210-306): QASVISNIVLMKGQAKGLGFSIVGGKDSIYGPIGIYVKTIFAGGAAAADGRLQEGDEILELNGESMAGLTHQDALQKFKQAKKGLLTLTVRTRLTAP
Chain of Inadl_4, Q8NI35 (Q8NI35 547-651): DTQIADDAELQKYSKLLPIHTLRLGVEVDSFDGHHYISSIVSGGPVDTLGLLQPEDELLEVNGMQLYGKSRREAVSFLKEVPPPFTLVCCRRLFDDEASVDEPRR
Chain of NOS1, P29475 (P29475 9-101): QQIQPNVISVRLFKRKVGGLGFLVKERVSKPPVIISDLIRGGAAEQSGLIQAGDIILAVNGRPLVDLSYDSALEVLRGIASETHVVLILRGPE
Chain of PARD3_3, Q8TEW0 (Q8TEW0 582-685): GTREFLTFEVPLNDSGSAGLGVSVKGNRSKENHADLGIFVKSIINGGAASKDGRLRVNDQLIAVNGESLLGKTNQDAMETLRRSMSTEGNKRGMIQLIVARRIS
Chain of MAGI2_5, Q86UL8 (Q86UL8 915-1017): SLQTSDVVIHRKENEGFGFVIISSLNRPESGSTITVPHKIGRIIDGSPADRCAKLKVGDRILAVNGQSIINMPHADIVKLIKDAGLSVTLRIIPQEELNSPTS

| pKd (AHNAK1, Q09666) | pKd (HTRA3, P83110) | pKd (IL16_1, Q14005) | pKd (LNX2_3, Q8N448) | pKd (HTRA4, P83105) | pKd (NHERF4_1, Q86UT5-2) | pKd (NOS1, P29475) | pKd (Inadl_4, Q8NI35) | pKd (MAST1, Q9Y2H9) | pKd (SNTG1, Q9NSN8) | pKd (TJP1_2, Q07157) | pKd (MAGI2_5, Q86UL8) | pKd (ARHGEF12, Q9NZN5-2) | pKd (SNTG2, Q9NY99) | pKd (NHERF2_2, Q15599) | pKd (SNTA1, Q13424) | pKd (MPP7, Q5T2T1) | pKd (CARD11, Q9BXL7) | pKd (SYNJ2BP, P57105) | pKd (SCRIB_2, Q14160) | other results | Binder |
| --- | --- | --- | --- | --- | --- | --- | --- | --- | --- | --- | --- | --- | --- | --- | --- | --- | --- | --- | --- | --- | --- |
| below the threshold | below the threshold | below the threshold | below the threshold | below the threshold | 3.63 | 3.9 | below the threshold | 3.85 | below the threshold | 3.62 | below the threshold | 3.71 | below the threshold | below the threshold | below the threshold | below the threshold | below the threshold | below the threshold | below the threshold | pKd (Inadl_9, Q8NI35): below the threshold; pKd (PARD3_3, Q8TEW0): below the threshold; pKd (PCLO, Q9Y6V0): below the threshold; pKd (DLG2_3, Q15700): 3.62; pKd (PARD3B_1, Q8TEW8): below the threshold; pKd (Inadl_3, Q8NI35): below the threshold | B1 |
| 3.55 | below the threshold | below the threshold | below the threshold | below the threshold | below the threshold | 3.52 | below the threshold | 4.02 | 3.81 | below the threshold | below the threshold | below the threshold | 3.77 | 3.55 | 3.88 | below the threshold | below the threshold | 4.48 | 3.69 | pKd (Inadl_9, Q8NI35): 3.52; pKd (PARD3_3, Q8TEW0): 3.5; pKd (PCLO, Q9Y6V0): below the threshold; pKd (DLG2_3, Q15700): below the threshold; pKd (PARD3B_1, Q8TEW8): below the threshold; pKd (Inadl_3, Q8NI35): below the threshold | B2 |
| below the threshold | 3.97 | below the threshold | below the threshold | below the threshold | 3.69 | 3.58 | below the threshold | 3.65 | below the threshold | below the threshold | below the threshold | below the threshold | below the threshold | below the threshold | below the threshold | below the threshold | below the threshold | below the threshold | below the threshold | pKd (Inadl_9, Q8NI35): 3.66; pKd (PARD3_3, Q8TEW0): below the threshold; pKd (PCLO, Q9Y6V0): below the threshold; pKd (DLG2_3, Q15700): below the threshold; pKd (PARD3B_1, Q8TEW8): below the threshold; pKd (Inadl_3, Q8NI35): below the threshold | B3 |
| below the threshold | 3.52 | below the threshold | below the threshold | 4.44 | 4.2 | 3.57 | below the threshold | 4.99 | 4 | below the threshold | 3.99 | 4.54 | 3.84 | 3.94 | 4.16 | below the threshold | below the threshold | 4.72 | 4.44 | pKd (Inadl_9, Q8NI35): 3.7; pKd (PARD3_3, Q8TEW0): below the threshold; pKd (PCLO, Q9Y6V0): below the threshold; pKd (DLG2_3, Q15700): 4.24; pKd (PARD3B_1, Q8TEW8): below the threshold; pKd (Inadl_3, Q8NI35): below the threshold | B4 |
